The record followed here is paper PMC12650144, “Interactive Role of the DHPR β1a SH3 Domain in Skeletal Muscle Excitation–Contraction Coupling” (Biomolecules, 2025).

In test [1] the target is T1, DHPR β1a SH3 domain (β1a residues V101-P272) (mouse, UniProt Q8R3Z5-4 101-272).
T1 construct: mouse DHPR β1a subunit, NCBI NM_031173, residues V101-P272 (split SH3 domain with the hook region); also called β1a–SH3 Domain (Residues 101–272); β1a SH3 protein; not shown: polyhistidine-tagged ubiquitin, N-terminal, cleaved
Kind of test: other fluorescence titration; tryptophan fluorescence quenching: intrinsic fluorescence of the β subunit or β1a-SH3 domain in the cuvette (sub-micromolar; 50 nM β1a-FL for the AID titration) monitored while titrating the II-III loop or peptides; excitation 280 nm, emission 340 nm; corrected for dilution and intrinsic fluorescence of the titrant; nonlinear regression. Particulars: both partners purified.

For test [2], the target named is T2, DHPR β1a subunit, full length (mouse, UniProt Q8R3Z5-4 1-524).
T2 construct: mouse voltage-gated calcium channel (DHPR) β1a subunit, NCBI NM_031173, full length; also called β1a-FL; full-length β1a; source: E. coli BL21, purified (Ni-agarose, ubiquitin removed, preparative electrophoresis); not shown: polyhistidine-tagged ubiquitin, N-terminal, cleaved
Described as above. Particulars: both partners purified.

T2 sequence (Q8R3Z5 other isoform, or with tags, fused parts or gaps): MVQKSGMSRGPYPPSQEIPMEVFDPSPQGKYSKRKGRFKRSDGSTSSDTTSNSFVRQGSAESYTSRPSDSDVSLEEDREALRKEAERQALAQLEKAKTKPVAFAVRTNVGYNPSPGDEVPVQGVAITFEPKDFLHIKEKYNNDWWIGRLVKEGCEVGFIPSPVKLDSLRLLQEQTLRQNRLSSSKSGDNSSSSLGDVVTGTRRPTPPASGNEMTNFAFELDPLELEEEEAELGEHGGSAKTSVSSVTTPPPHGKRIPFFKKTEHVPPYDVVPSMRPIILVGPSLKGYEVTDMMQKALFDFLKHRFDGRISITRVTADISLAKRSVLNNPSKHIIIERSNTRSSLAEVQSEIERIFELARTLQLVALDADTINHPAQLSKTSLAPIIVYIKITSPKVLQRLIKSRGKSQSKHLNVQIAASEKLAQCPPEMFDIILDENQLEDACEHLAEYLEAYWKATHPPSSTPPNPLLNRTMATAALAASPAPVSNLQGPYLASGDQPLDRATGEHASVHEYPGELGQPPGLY
T1 sequence (Q8R3Z5 other isoform, or with tags, fused parts or gaps): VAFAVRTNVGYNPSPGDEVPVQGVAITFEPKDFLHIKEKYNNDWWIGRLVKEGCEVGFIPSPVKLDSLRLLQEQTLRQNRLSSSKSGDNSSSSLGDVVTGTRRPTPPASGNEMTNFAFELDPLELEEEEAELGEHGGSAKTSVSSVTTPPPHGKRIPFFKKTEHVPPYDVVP

B1: DHPR α1s II-III loop (domain or fragment, UniProt P07293 666-791, looked up)
chain: EAESLTSAQKAKAEERKRRKMSRGLPDKTEEEKSVMAKKLEQKPKGEGIPTTAKLKVDEFESNVNEVKDPYPSADFPGDDEEDEPEIPVSPRPRPLAELQLKEKAVPIPEASSFFIFSPTNKVRVL
notes: DHPR α1s subunit (CaV1.1), cytoplasmic II-III loop, residues E666-L791 of NCBI X05921 (methods); the results say residues 666-790 of NP_001095190; Methods: E666-L791; results: 666-790; also called α1s DHPR II-III Loop; DHPR II-III loop; source: E. coli BL21, purified (Ni-agarose, ubiquitin removed, preparative electrophoresis); not shown: polyhistidine-tagged ubiquitin, N-terminal, cleaved
For B1, the values for the Kd in test [1] and in test [2] were 2.6 ± 0.2 µM and 2.5 ± 0.4 µM, respectively.

B2: α1s II–III loop C region peptide (residues 720–765) (peptide, UniProt P07293 720-765, looked up)
peptide: LKVDEFESNVNEVKDPYPSADFPGDDEEDEPEIPVSPRPRPLAELQ
notes: DHPR α1s subunit, II-III loop C region, residues 720-765 of NP_001095190.1 (skeletal); also called α1s C; skeletal II-III loop C region; source: synthetic peptide
As to B2, the values for the Kd in test [1] and in test [2] were 3.6 ± 0.6 µM and 4.9 ± 0.6 µM, respectively.

B3: α1c II–III loop C region peptide (residues 851–895) (peptide, UniProt P15381-1 851-895, looked up)
peptide: INMDDLQPNESEDKSPYPNPETTGEEDEEEPEMPVGPRPRPLSEL
notes: DHPR α1c subunit (cardiac, CaV1.2), II-III loop C region, residues 851-895 of NP_001129994.1 (cardiac); also called α1c C; cardiac II-III loop C region; source: synthetic peptide
As for B3, the equilibrium dissociation constant (Kd) in test [1] came out at 2.5 ± 0.2 µM; in test [2] it was 3.5 ± 0.4 µM.

As a reminder, the Kd is the constant that tells how readily two partners part at equilibrium. Read a low Kd as tighter binding.
